In PMC3404065:

Key:
[1] = target: F-actin polymerised from purified G-actin (Cytoskeleton APHL99-A) (UniProt P60709); test: co-sedimentation; supernatant-depletion method, equilibrium binding to ADP-F-actin (filaments from ADP-G-actin made with 20 U/mL hexokinase and 1 mM glucose); GST-ABD left in the supernatant by anti-GST immunoblot and densitometry
[2] = target: F-actin polymerised from purified G-actin (Cytoskeleton APHL99-A) (UniProt P60709); test: co-sedimentation; high-speed F-actin co-sedimentation; F-actin polymerised from Mg-ATP-G-actin (50 mM KCl, 1 mM MgCl2, 1 mM ATP); 30 min at room temperature, Airfuge ~100,000 x g 30 min; supernatant and pellet on SDS-PAGE, Coomassie Blue or silver stain
[3] = target: F-actin polymerised from purified G-actin (Cytoskeleton APHL99-A) (UniProt P60709); test: co-sedimentation; supernatant-depletion method, equilibrium binding to ATP/ADP-Pi-F-actin (filaments from ATP-G-actin); GST-ABD left in the supernatant by anti-GST immunoblot and densitometry; room temperature

With “GST-TEM4 81-135 (GST-ABD) (from UniProt Q96PE2 81-135) (domain or fragment)” the Kd [1] was 4700 nM, the stoichiometry N ([2]; scale: actin per GST-ABD) was 1.4 and the stoichiometry N ([2]; scale: ratio GST-ABD to actin, after correction for the 15-20% GST cleavage product) was 1. The Kd [3] was 53 nM.
